Measured values: publication PMC3463355

Legend:
[1] = biological target: full-length human PARP-1 [change] (human) (UniProt P09874); assay: FRET or BRET
[2] = biological target: N-parp (N-terminal half of PARP-1, amino acids 1-486) (human) (UniProt P09874); assay: FRET or BRET
[3] = biological target: N-parp (Zn1-Zn3 and BRCT) (UniProt P09874); assay: HI-FI FRET
[4] = biological target: PARP-1 (full-length) V762A (human) (UniProt P09874); assay: HI-FI FRET
[5] = biological target: Nuc165, unlabeled mononucleosome on 165-bp 601 DNA; assay: SEC-MALS
[6] = biological target: Nuc207, mononucleosome on 207-bp 601 DNA as used for SEC-MALS; assay: SEC-MALS
[7] = biological target: nucleosome (of the N-parp/nucleosome complexes, data not shown); assay: SEC-MALS

Chain of PARP-1 (full-length) V762A (human) (P09874 whole entry V762A): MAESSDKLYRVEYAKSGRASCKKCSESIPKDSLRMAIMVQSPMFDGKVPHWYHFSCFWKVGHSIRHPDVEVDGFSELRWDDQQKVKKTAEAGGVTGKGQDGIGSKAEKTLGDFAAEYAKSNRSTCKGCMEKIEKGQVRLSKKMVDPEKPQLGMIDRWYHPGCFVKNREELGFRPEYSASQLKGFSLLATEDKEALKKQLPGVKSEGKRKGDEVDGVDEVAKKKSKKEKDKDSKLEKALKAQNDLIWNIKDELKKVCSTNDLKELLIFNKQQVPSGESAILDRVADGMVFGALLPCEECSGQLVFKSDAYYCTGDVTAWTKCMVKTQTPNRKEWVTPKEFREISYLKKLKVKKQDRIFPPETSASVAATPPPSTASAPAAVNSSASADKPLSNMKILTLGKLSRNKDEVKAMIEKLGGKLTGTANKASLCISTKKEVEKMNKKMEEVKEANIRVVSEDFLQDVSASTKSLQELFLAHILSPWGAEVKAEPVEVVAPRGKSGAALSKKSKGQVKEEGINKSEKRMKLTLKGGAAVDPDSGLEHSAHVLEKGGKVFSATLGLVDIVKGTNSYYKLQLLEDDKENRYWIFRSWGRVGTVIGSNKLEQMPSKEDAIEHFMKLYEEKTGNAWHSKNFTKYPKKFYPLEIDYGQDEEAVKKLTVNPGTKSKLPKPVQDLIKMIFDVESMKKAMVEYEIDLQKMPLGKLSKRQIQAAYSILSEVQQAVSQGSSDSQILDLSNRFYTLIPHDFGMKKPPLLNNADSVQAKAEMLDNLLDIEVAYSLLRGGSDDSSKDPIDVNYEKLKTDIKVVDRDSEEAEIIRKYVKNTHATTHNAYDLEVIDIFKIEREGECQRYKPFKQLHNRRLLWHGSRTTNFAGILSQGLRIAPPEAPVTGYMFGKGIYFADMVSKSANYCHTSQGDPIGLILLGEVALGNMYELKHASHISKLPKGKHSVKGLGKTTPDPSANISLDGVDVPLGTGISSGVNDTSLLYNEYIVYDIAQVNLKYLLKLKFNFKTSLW
Chain of N-parp (Zn1-Zn3 and BRCT) (P09874 1-486): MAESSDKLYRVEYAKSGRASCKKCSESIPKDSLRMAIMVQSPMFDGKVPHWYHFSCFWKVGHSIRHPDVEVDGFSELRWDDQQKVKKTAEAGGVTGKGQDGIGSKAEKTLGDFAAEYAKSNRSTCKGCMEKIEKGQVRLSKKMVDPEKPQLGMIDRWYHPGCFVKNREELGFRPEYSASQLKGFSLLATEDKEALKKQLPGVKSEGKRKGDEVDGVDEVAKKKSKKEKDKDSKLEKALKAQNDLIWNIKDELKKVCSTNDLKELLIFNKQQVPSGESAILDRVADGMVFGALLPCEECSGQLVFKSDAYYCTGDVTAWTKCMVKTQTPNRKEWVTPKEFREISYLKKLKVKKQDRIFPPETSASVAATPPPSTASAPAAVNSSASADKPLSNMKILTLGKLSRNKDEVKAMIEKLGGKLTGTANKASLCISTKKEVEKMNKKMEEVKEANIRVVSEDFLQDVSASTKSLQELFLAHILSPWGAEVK
Chain of N-parp (N-terminal half of PARP-1, amino acids 1-486) (human) (P09874 1-486): as above
Chain of full-length human PARP-1 [change] (human) (P09874 whole entry V762A, the tested form may be a part): as the sequence (P09874 whole entry V762A) above
Chain of N-parp (N-terminal half of PARP-1, amino acids 1-486) (P09874 1-486): as the sequence (P09874 1-486) above

Nuc147, mononucleosome on 147-bp 601 DNA, labeled with ATTO 647N at histone H4 [change] (complex)
Kd [1]: > 500 nM
Kd [2]: > 500 nM

Nuc207
Kd [3]: 48.8 nM
Kd [4]: 1 nM

Nuc165
Kd [3]: 57.8 nM
Kd [4]: 2.2 nM

full-length human PARP-1 [change] (from UniProt P09874) (enzyme)
stoichiometry N [5]: 1
stoichiometry N [6]: 1

Nuc165, mononucleosome on 165-bp 601 DNA, labeled with ATTO 647N at histone H4 [change] (complex)
Kd [1]: 2.2 nM
Kd [2]: 57.8 nM

N-parp (N-terminal half of PARP-1, amino acids 1-486) (from UniProt P09874 1-486) (domain or fragment)
stoichiometry N [7]: 1

Nuc178
Kd [3]: 238 nM
Kd [4]: 84.6 nM

Nuc207, mononucleosome on 207-bp 601 DNA, labeled with ATTO 647N at histone H4 [change] (complex)
Kd [2]: 48.8 nM
